Results: publication PMC8359340

Molecular target: Synechococcus sp. PCC 7002 Type 2 β‐McdB (Synechococcus sp. PCC 7002)
Assay: SEC-MALS

stoichiometry N: 2
Substance: Synechococcus sp. PCC 7002 Type 2 β‐McdB (natural protein)
